Source: US12303551B2, “Cellular immunotherapy compositions and uses thereof” (CERO THERPEUTICS HOLDINGS, INC., priority 2018, dated 2025)

B1: CER105: Chimeric engulfment receptor: Tim4 binding, Tim4 transmembrane, TLR8 and Baff-R signaling; SEQ ID NO: 140 (protein)
chain: MSKGLLLLWLVTELWWLYLTPAASEDTIIGFLGQPVTLPCHYLSWSQSRNSMCWGKGSCPNSKCNAELLRTDGTRIISRKSTKYTLLGKVQFGEVSLTISNTNRGDSGVYCCRIEVPGWFNDVKKNVRLELRRATTTKKPTTTTRPTTTPYVTTTTPELLPTTVMTTSVLPTTTPPQTLATTAFSTAVTTCPSTTPGSFSQETTKGSAFTTESETLPASNHSQRSMMTISTDIAVLRPTGSNPGILPSTSQLTTQKTTLTTSESLQKTTKSHQINSRQTILIIACCVGFVLMVLLFLAFLHHLFYWDVWFIYNVCLAKVKGYRSLSTSQTFYDAYISYDTKDASVTDWVINELRYHLEESRDKNVLLCLEERDWDPGLAIIDNLMQSINQSKKTVFVLTKKYAKSWNFKTAFYLALQRLMDENMDVIIFILLEPVLQHSQYLRLRQRICKSSILQWPDNPKAEGLFWQTLRNVVLTENDSRYNNMYVDSIKQYSWRRRQRRLRGASSAEAPDGDKDAPEPLDKVIILSPGISDATAPAWPPPGEDPGTTPPGHSVPVPATELGSTELVTTKTAGPEQQ
modifications: CER105, amino acids 1-22 are signal peptide
B2: CER106: Chimeric engulfment receptor: Tim4 binding, Tim4 transmembrane, NFAM1 and TLR8 signaling; SEQ ID NO: 141 (protein)
chain: MSKGLLLLWLVTELWWLYLTPAASEDTIIGFLGQPVTLPCHYLSWSQSRNSMCWGKGSCPNSKCNAELLRTDGTRIISRKSTKYTLLGKVQFGEVSLTISNTNRGDSGVYCCRIEVPGWFNDVKKNVRLELRRATTTKKPTTTTRPTTTPYVTTTTPELLPTTVMTTSVLPTTTPPQTLATTAFSTAVTTCPSTTPGSFSQETTKGSAFTTESETLPASNHSQRSMMTISTDIAVLRPTGSNPGILPSTSQLTTQKTTLTTSESLQKTTKSHQINSRQTILIIACCVGFVLMVLLFLAFLLWNKKRMRGPGKDPTRKCPDPRSASSPKQHPSESVYTALQRRETEVYACIENEDGSSPTAKQSPLSQERPHRFEDDGELNLVYENLHHLFYWDVWFIYNVCLAKVKGYRSLSTSQTFYDAYISYDTKDASVTDWVINELRYHLEESRDKNVLLCLEERDWDPGLAIIDNLMQSINQSKKTVFVLTKKYAKSWNFKTAFYLALQRLMDENMDVIIFILLEPVLQHSQYLRLRQRICKSSILQWPDNPKAEGLFWQTLRNVVLTENDSRYNNMYVDSIKQY
modifications: CER106, amino acids 1-22 are signal peptide
B3: CER27: Chimeric engulfment receptor: Tim4 binding, Tim4 transmembrane, TLR2 signaling; SEQ ID NO: 98 (protein)
chain: MSKGLLLLWLVTELWWLYLTPAASEDTIIGFLGQPVTLPCHYLSWSQSRNSMCWGKGSCPNSKCNAELLRTDGTRIISRKSTKYTLLGKVQFGEVSLTISNTNRGDSGVYCCRIEVPGWFNDVKKNVRLELRRATTTKKPTTTTRPTTTPYVTTTTPELLPTTVMTTSVLPTTTPPQTLATTAFSTAVTTCPSTTPGSFSQETTKGSAFTTESETLPASNHSQRSMMTISTDIAVLRPTGSNPGILPSTSQLTTQKTTLTTSESLQKTTKSHQINSRQTILIIACCVGFVLMVLLFLAFLHRFHGLWYMKMMWAWLQAKRKPRKAPSRNICYDAFVSYSERDAYWVENLMVQELENFNPPFKLCLHKRDFIPGKWIIDNIIDSIEKSHKTVFVLSENFVKSEWCKYELDFSHFRLFDENNDAAILILLEPIEKKAIPQRFCKLRKIMNTKTYLEWPMDEAQREGFWVNLRAAIKS
modifications: CER27, amino acids 1-22 are signal peptide
B4: CER103B: Chimeric engulfment receptor: Tim4 binding, Tim4 transmembrane, TLR8 and CD79b (185-213) signaling; SEQ ID NO: 138 (protein)
chain: MSKGLLLLWLVTELWWLYLTPAASEDTIIGFLGQPVTLPCHYLSWSQSRNSMCWGKGSCPNSKCNAELLRTDGTRIISRKSTKYTLLGKVQFGEVSLTISNTNRGDSGVYCCRIEVPGWFNDVKKNVRLELRRATTTKKPTTTTRPTTTPYVTTTTPELLPTTVMTTSVLPTTTPPQTLATTAFSTAVTTCPSTTPGSFSQETTKGSAFTTESETLPASNHSQRSMMTISTDIAVLRPTGSNPGILPSTSQLTTQKTTLTTSESLQKTTKSHQINSRQTILIIACCVGFVLMVLLFLAFLHHLFYWDVWFIYNVCLAKVKGYRSLSTSQTFYDAYISYDTKDASVTDWVINELRYHLEESRDKNVLLCLEERDWDPGLAIIDNLMQSINQSKKTVFVLTKKYAKSWNFKTAFYLALQRLMDENMDVIIFILLEPVLQHSQYLRLRQRICKSSILQWPDNPKAEGLFWQTLRNVVLTENDSRYNNMYVDSIKQYDSKAGMEEDHTYEGLDIDQTATYEDIVTL
modifications: CER103B, amino acids 1-22 are signal peptide

Tested on: SCC152 cells
Assay: Elimination of GFP-expressing SCC152 target cells over time (quantification and time lapse imaging)
Assay type: cell-based
Conditions: 96-well co-culture, CD8+/E7 TCR + CD4+/CER + SCC152 1:1:1, compared to control
Experimental: Target SCC152 cells were co-cultured with CD8+ T cells transduced with HPV E7 TCR+CD4+ T cells transduced with a selected CER, or controls (CD8+ T cell transduced with HPV E7 TCR+CD4+ transduced control) at a 1:1:1 ratio. The number of target cells were quantified using imaging software. 0 hours, 24 hours, and 48 hours are shown from left to right.
(§1) FIG. 21 is time lapse imaging from 96-well co-culture experiments comprising CD8+ T cells transduced with HPV16 E7 TCR+CD4+ T cells transduced with CER5, CER17 or CER19 incubated with SCC152 target cells at a 1:1:1 ratio. SCC152 HPV+ target cells were quantified using automated cell counting software.
as §1, with “22” for “21”, “CER21, CER23” for “CER5, CER17”, “CER26” for “CER19”
as §1, with “23” for “21”, “CER103b, CER104” for “CER5, CER17”, “CER105” for “CER19”
as §1, with “24” for “21”, “CER106, CER116” for “CER5, CER17”, “CER27” for “CER19”
FIG. 57 is a bar graph showing quantification of loss of SCC152 HPV16+ target cells over time during co-culture assays. SCC152 cells were transduced with green fluorescent protein (GFP) and co-cultured with CD8+ T cells transduced with HPV16 E7 TCR and CD4+ T cells transduced with a selected CER (CER29, CER30, CER110, CER112, CER113, CER114, CER116, or CER117) or a CD4+ T cell control at a 1:1:1 ratio (CD8:CD4:target cell). The number of target cells was quantified at various time points during co-culture (0 hrs, 12 hrs, 24 hrs, and 36 hrs) using fluorescence microscopy and imaging software.
(§2) FIG. 58 are fluorescence micrograph images of the co-culture assay described in FIG. 57, showing clearance of the SCC152 cells (pink) as co-culture with CD8+ T cells transduced with HPV16 E7 TCR and CD4+ T cells transduced with a selected CER (columns from left to right: control, CER29, CER30, CER110, or CER112) progresses (rows from top to bottom: 0 hrs, 12 hrs, 24 hrs, and 36 hrs).
as §2, with “59” for “58”, “CER113, CER114, CER116,” for “CER29, CER30, CER110,”, “CER117)” for “CER112)”
(§3) Elimination of target SCC152 cells was also detected by quantifying green fluorescent protein expression by SCC152 cells over time (0 hr, 24 hr, 48 hr) during co-incubation with CD8+ T cells transduced with HPV16 E7 specific TCR+ CD4 T cells transduced with selected CER (see, FIG. 20).
as §3, with “hr, 12 hr,” for “hr,”, “hr, 36” for “hr, 48”, “TCR+ CD4+” for “TCR+ CD4”, “CER (CER29, CER30, CER110, CER112, CER113, CER114, CER116, or CER117)” for “CER”, “FIG. 57).” for “FIG. 20).”

Molecule	number of SCC152 cells in time lapse imaging
B1	decreasing in numbers over time
B2	decreasing in numbers over time
B3	decreasing in numbers over time
B4	decreasing in numbers over time
